Measured values published in US20260209386A1 (MYTHIC THERAPEUTICS, published 2026).
Residue numbers refer to the chain shown, from its start.

B1: MYT11057 (antibody, V domains shown)
VH: EVQLVESGGGLVQPGGSLRLSCTASGLSLSSYWMSWVRQAPGKGLEWVGVISAGGNTYYANWAKGRFTISRDTSKNTVYLQMNSLRAEDTAVYFCARGDHGYTNAAYVSNLWGQGTLVTVSS
VL: EIVMTQSPSTLSASVGDRVIITCQASQSISSWLSWYQQKPGKAPKLLIYKASTLASGVPSRFSGSGSGAEFTLTISSLQPDDFATYYCQSYFDSTTIAFGQGTKLTVL
notes: MYT9361 HC variant
B2: MYT11074 (antibody, V domains shown)
VH: B1 VH with H100D
VL: B1 VL with S26H
notes: MYT9361 LC variant
B3: MYT11080 (antibody, V domains shown)
VH: B1 VH with H100D
VL: B1 VL with W32H
notes: MYT9361 LC variant
B4: MYT11085 (antibody, V domains shown)
VH: B1 VH with H100D
VL: B1 VL with S52H
notes: MYT9361 LC variant
B5: MYT11064 (antibody, V domains shown)
VH: B1 VH with H100D, Y107H
VL: B1 VL
notes: MYT9361 HC variant
B6: MYT11061 (antibody, V domains shown)
VH: B1 VH with H100D, N104H
VL: B1 VL
notes: MYT9361 HC variant
B7: MYT11098 (antibody, V domains shown)
VH: B1 VH with H100D
VL: B1 VL with I97H
notes: MYT9361 LC variant
B8: MYT11067 (antibody, V domains shown)
VH: B1 VH with H100D, N110H
VL: B1 VL
notes: MYT9361 HC variant
B9: MYT11070 (antibody, V domains shown)
VH: B1 VH with D99A, H100D
VL: B1 VL
notes: MYT9361 HC alanine variant
B10: MYT11090 (antibody, V domains shown)
VH: B1 VH with H100D
VL: B1 VL with Q89H
notes: MYT9361 LC variant
B11: MYT11076 (antibody, V domains shown)
VH: B1 VH with H100D
VL: B1 VL with S28H
notes: MYT9361 LC variant
B12: MYT11089 (antibody, V domains shown)
VH: B1 VH with H100D
VL: B1 VL with S56H
notes: MYT9361 LC variant
B13: MYT11086 (antibody, V domains shown)
VH: B1 VH with H100D
VL: B1 VL with T53H
notes: MYT9361 LC variant
B14: MYT11066 (antibody, V domains shown)
VH: B1 VH with H100D, S109H
VL: B1 VL
notes: MYT9361 HC variant
B15: MYT11071 (antibody, V domains shown)
VH: B1 VH with H100A
VL: B1 VL
notes: MYT9361 HC alanine variant
B16: MYT11099 (antibody, V domains shown)
VH: B1 VH with H100D
VL: B1 VL with A98H
notes: MYT9361 LC variant
B17: MYT11060 (antibody, V domains shown)
VH: B1 VH with H100D, T103H
VL: B1 VL
notes: MYT9361 HC variant
B18: MYT11083 (antibody, V domains shown)
VH: B1 VH with H100D
VL: B1 VL with K50H
notes: MYT9361 LC variant
B19: MYT11062 (antibody, V domains shown)
VH: B1 VH with H100D, A105H
VL: B1 VL
notes: MYT9361 HC variant
B20: MYT11095 (antibody, V domains shown)
VH: B1 VH with H100D
VL: B1 VL with S94H
notes: MYT9361 LC variant
B21: MYT11065 (antibody, V domains shown)
VH: B1 VH with H100D, V108H
VL: B1 VL
notes: MYT9361 HC variant
B22: MYT11088 (antibody, V domains shown)
VH: B1 VH with H100D
VL: B1 VL with A55H
notes: MYT9361 LC variant
B23: MYT11072 (antibody, V domains shown)
VH: B1 VH with H100D
VL: B1 VL with Q24H
notes: MYT9361 LC variant
B24: MYT11097 (antibody, V domains shown)
VH: B1 VH with H100D
VL: B1 VL with T96H
notes: MYT9361 LC variant
B25: MYT11075 (antibody, V domains shown)
VH: B1 VH with H100D
VL: B1 VL with Q27H
notes: MYT9361 LC variant
B26: MYT11092 (antibody, V domains shown)
VH: B1 VH with H100D
VL: B1 VL with Y91H
notes: MYT9361 LC variant
B27: MYT11087 (antibody, V domains shown)
VH: B1 VH with H100D
VL: B1 VL with L54H
notes: MYT9361 LC variant
B28: MYT11073 (antibody, V domains shown)
VH: B1 VH with H100D
VL: B1 VL with A25H
notes: MYT9361 LC variant
B29: MYT11102 (antibody, V domains shown)
VH: EVQLVESGGGLVQPGGSLRLSCTASHFSLSTYAMSWVRQAPGKGLEWVGMIYINDNTYYASWAKGRFTISRDTSKNTVYLQMNSLRAEDTAVYFCARDIGISYYIGVSLWGQGTLVTVSS
VL: EIVMTQSPSTLSASVGDRVIITCQASQSIGTRLSWYQQKPGKAPKLLIYGASKLATGVPSRFSGSGSGAEFTLTISSLQPDDFATYYCLGEYSYTTTDGIAFGQGTKLTVL
notes: MYT9412 HC variant
B30: MYT11116 (antibody, V domains shown)
VH: B29 VH with H26G, N54H
VL: B29 VL
notes: MYT9412 HC variant
B31: MYT11104 (antibody, V domains shown)
VH: B29 VH with H26G, S28H
VL: B29 VL
notes: MYT9412 HC variant
B32: MYT11110 (antibody, V domains shown)
VH: B29 VH with H26G, M34H
VL: B29 VL
notes: MYT9412 HC variant
B33: MYT11109 (antibody, V domains shown)
VH: B29 VH with H26G, A33H
VL: B29 VL
notes: MYT9412 HC variant
B34: MYT11119 (antibody, V domains shown)
VH: B29 VH with H26G, T57H
VL: B29 VL
notes: MYT9412 HC variant
B35: MYT11113 (antibody, V domains shown)
VH: B29 VH with H26G, I51H
VL: B29 VL
notes: MYT9412 HC variant
B36: MYT11121 (antibody, V domains shown)
VH: B29 VH with H26G, Y59H
VL: B29 VL
notes: MYT9412 HC variant
B37: MYT11118 (antibody, V domains shown)
VH: B29 VH with H26G, N56H
VL: B29 VL
notes: MYT9412 HC variant

molecular target: T1, Human PTK7 Protein, His Tag (Acro Biosystems) (human, UniProt Q13308 31-704); assay: BLI (Octet), antibody on anti-human Fc sensor, 50 nM PTK7; grade 2 = substantially similar binding relative to parent
T1 construct: Bought His-tagged protein; also called CCK4; not shown: His tag
T1 sequence: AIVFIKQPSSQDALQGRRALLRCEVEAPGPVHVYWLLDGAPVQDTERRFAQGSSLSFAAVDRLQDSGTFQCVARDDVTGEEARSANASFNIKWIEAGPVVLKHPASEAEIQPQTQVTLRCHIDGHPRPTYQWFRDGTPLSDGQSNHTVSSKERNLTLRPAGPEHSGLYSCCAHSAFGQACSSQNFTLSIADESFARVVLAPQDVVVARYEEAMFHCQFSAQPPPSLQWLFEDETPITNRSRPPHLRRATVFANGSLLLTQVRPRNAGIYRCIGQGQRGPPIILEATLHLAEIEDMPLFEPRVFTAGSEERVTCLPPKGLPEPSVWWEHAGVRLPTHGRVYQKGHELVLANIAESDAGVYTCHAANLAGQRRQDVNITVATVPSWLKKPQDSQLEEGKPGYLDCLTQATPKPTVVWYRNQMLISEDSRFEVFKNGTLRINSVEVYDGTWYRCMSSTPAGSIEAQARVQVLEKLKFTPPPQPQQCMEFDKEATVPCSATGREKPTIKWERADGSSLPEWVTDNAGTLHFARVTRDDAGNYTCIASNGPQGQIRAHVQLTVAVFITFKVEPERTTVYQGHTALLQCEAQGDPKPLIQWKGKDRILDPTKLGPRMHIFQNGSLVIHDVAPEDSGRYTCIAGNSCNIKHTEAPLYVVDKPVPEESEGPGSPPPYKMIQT

Binding result, binds:
B1
B2
B3
B4
B5
B6
B7
B8
B9
B10
B11
B12
B13
B14
B15
B16
B17
B18
B19
B20
B21
B22
B23
B24
B25
B26
B27
B28

molecular target: T2, Human PTK7 Protein, His Tag, Acro Biosystems (human, UniProt Q13308 31-704); assay: BLI, anti-human Fc capture, 50 nM PTK7; 2 = substantially similar binding relative to parent
T2 construct: Bought recombinant protein; also called CCK4; not shown: His tag
T2 sequence: T1 sequence

Binding result, binds:
B29
B30
B31
B32
B33
B34
B35
B36
B37
